Patent US20240166748A1
Several values for one entry are separate records, joined by “and”; a condition that tells them apart may be missing. Equal entries are not always repeated.

Tests used:
[1] = target: T1, canine FcRn (UniProtKB-E2R0L6 [FcRn] and UniProtKB-E2RN10 [canine beta-2-microglobulin]) (canine); experiment: SPR Biacore 8K, pH 5.5, Fc captured via SASA tag on BSA, canine FcRn 400 nM
[2] = target: T1, canine FcRn; experiment: SPR Biacore 8K, pH 5.5, Fc captured via SASA tag on BSA, canine FcRn 100-800 nM
[3] = target: T1, canine FcRn; experiment: SPR Biacore 8K, pH 5.5, Fc captured via SASA tag on BSA, canine FcRn 200 nM
[4] = target: T1, canine FcRn; experiment: as above; remark: listed apart in the source
[5] = target: T1, canine FcRn; experiment: as above; remark: listed apart in the source
[6] = target: T1, canine FcRn; experiment: as above; remark: listed apart in the source
[7] = target: T1, canine FcRn; experiment: SPR Biacore 8K, pH 5.5, canine FcRn 400 nM; average of the 12 wild-type runs
[8] = target: T1, canine FcRn; experiment: SPR Biacore 8K, pH 5.5, Fc captured via SASA tag on BSA, canine FcRn 200 nM; remark: listed apart in the source
[9] = target: T1, canine FcRn; experiment: as above; remark: listed apart in the source
[10] = target: T1, canine FcRn; experiment: as above; remark: listed apart in the source
[11] = target: T1, canine FcRn; experiment: as above; remark: listed apart in the source

canine IgG.B Fc variant Q311A (SASA-tagged CH2-CH3) (Fc fusion)
Kd [1]: 368 nM and 370 nM
WT KD Avg/Variant KD [1]: 1.54 and 1.53
koff [1]: 0.894 s⁻¹ and 0.496 s⁻¹
kon [1]: 2.43e+06 M⁻¹ s⁻¹ and 1.34e+06 M⁻¹ s⁻¹

canine IgG.B Fc variant N434R (SASA-tagged CH2-CH3) (Fc fusion)
Kd [2]: 182 nM
koff [2]: 0.0801 s⁻¹
kon [2]: 440000 M⁻¹ s⁻¹
Kd [3]: 107 nM and 159 nM
koff [3]: 0.0524 s⁻¹ and 0.0633 s⁻¹
kon [3]: 488000 M⁻¹ s⁻¹ and 399000 M⁻¹ s⁻¹

canine IgG.B Fc variant N434W (SASA-tagged CH2-CH3) (Fc fusion)
Kd [2]: 101 nM
koff [2]: 0.045 s⁻¹
kon [2]: 446000 M⁻¹ s⁻¹
Kd [3]: 40.4 nM and 75.7 nM

canine IgG.B Fc variant P307A (SASA-tagged CH2-CH3) (Fc fusion)
Kd [1]: 325 nM and 338 nM
WT KD Avg/Variant KD [1]: 1.74 and 1.67

canine IgG.B Fc variant Y436A (SASA-tagged CH2-CH3) (Fc fusion)
Kd [1]: 393 nM and 876 nM
WT KD Avg/Variant KD [1]: 1.44 and 0.65
koff [1]: 0.407 s⁻¹ and 0.213 s⁻¹

canine IgG.B Fc variant L252Y (SASA-tagged CH2-CH3) (Fc fusion)
Kd [2]: 173 nM
koff [2]: 0.0476 s⁻¹
kon [2]: 275000 M⁻¹ s⁻¹
Kd [3]: 98.7 nM and 114 nM
koff [3]: 0.0397 s⁻¹ and 0.041 s⁻¹
kon [3]: 402000 M⁻¹ s⁻¹ and 358000 M⁻¹ s⁻¹

canine IgG.B Fc variant T250Q (SASA-tagged CH2-CH3) (Fc fusion)
Kd [3]: 2590 nM and 2840 nM
koff [3]: 0.258 s⁻¹ and 0.268 s⁻¹
kon [3]: 99600 M⁻¹ s⁻¹ and 94300 M⁻¹ s⁻¹

canine IgG.B Fc variant L252A (SASA-tagged CH2-CH3) (Fc fusion)
Kd [1]: 292 nM and 240 nM
WT KD Avg/Variant KD [1]: 1.94 and 2.36

canine IgG.B Fc variant D378V (SASA-tagged CH2-CH3) (Fc fusion)
Kd [3]: 693 nM and 873 nM
koff [3]: 0.159 s⁻¹ and 0.16 s⁻¹
kon [3]: 229000 M⁻¹ s⁻¹ and 184000 M⁻¹ s⁻¹

canine IgG.B Fc variant N434H (SASA-tagged CH2-CH3) (Fc fusion)
Kd [2]: 247 nM
koff [2]: 0.102 s⁻¹
kon [2]: 411000 M⁻¹ s⁻¹

canine IgG.B Fc variant Q285A (SASA-tagged CH2-CH3) (Fc fusion)
Kd [1]: 341 nM and 257 nM
WT KD Avg/Variant KD [1]: 1.66 and 2.2

canine IgG.B Fc variant E380A (SASA-tagged CH2-CH3) (Fc fusion)
Kd [1]: 618 nM and 747 nM
WT KD Avg/Variant KD [1]: 0.76 and 0.92
koff [1]: 0.369 s⁻¹ and 0.18 s⁻¹
kon [1]: 598000 M⁻¹ s⁻¹ and 241000 M⁻¹ s⁻¹
Kd [3]: 1320 nM and 1570 nM
koff [3]: 0.223 s⁻¹ and 0.239 s⁻¹
kon [3]: 168000 M⁻¹ s⁻¹ and 152000 M⁻¹ s⁻¹

canine IgG.B Fc variant N434Y (SASA-tagged CH2-CH3) (Fc fusion)
Kd [2]: 29.1 nM
koff [2]: 0.0151 s⁻¹
kon [2]: 520000 M⁻¹ s⁻¹
Kd [3]: 15.9 nM
koff [3]: 0.00968 s⁻¹
kon [3]: 607000 M⁻¹ s⁻¹

canine IgG.B Fc variant T250A (SASA-tagged CH2-CH3) (Fc fusion)
Kd [1]: 335 nM and 328 nM
WT KD Avg/Variant KD [1]: 1.69 and 1.72

canine IgG.B Fc variant H433A (SASA-tagged CH2-CH3) (Fc fusion)
Kd [1]: 266 nM and 359 nM
WT KD Avg/Variant KD [1]: 2.13 and 1.58
koff [1]: 0.229 s⁻¹ and 0.0997 s⁻¹

canine IgG.B Fc YTE variant (L252Y/A254T/T256E) (SASA-tagged CH2-CH3) (Fc fusion)
Kd [2]: 184 nM
koff [2]: 0.046 s⁻¹
kon [2]: 250000 M⁻¹ s⁻¹

canine IgG.B Fc variant D378A (SASA-tagged CH2-CH3) (Fc fusion)
Kd [1]: 673 nM and 592 nM
WT KD Avg/Variant KD [1]: 0.84 and 0.96
koff [1]: 0.183 s⁻¹ and 0.181 s⁻¹
kon [1]: 272000 M⁻¹ s⁻¹ and 306000 M⁻¹ s⁻¹

canine IgG.B Fc variant N434A (SASA-tagged CH2-CH3) (Fc fusion)
Kd [1]: 457 nM and 494 nM
WT KD Avg/Variant KD [1]: 1.24 and 1.14
koff [1]: 0.237 s⁻¹ and 0.477 s⁻¹
kon [1]: 518000 M⁻¹ s⁻¹ and 966000 M⁻¹ s⁻¹
Kd [3]: 573 nM and 629 nM
koff [3]: 0.156 s⁻¹ and 0.164 s⁻¹
kon [3]: 272000 M⁻¹ s⁻¹ and 261000 M⁻¹ s⁻¹

canine IgG.B Fc variant A254S (SASA-tagged CH2-CH3) (Fc fusion)
Kd [1]: 340 nM and 317 nM
WT KD Avg/Variant KD [1]: 1.66 and 1.78

canine IgG.B Fc variant I308A (SASA-tagged CH2-CH3) (Fc fusion)
Kd [1]: 472 nM and 563 nM
WT KD Avg/Variant KD [1]: 1.2 and 1
koff [1]: 0.169 s⁻¹ and 0.194 s⁻¹
kon [1]: 357000 M⁻¹ s⁻¹ and 345000 M⁻¹ s⁻¹

canine IgG.B Fc variant A254T (SASA-tagged CH2-CH3) (Fc fusion)
Kd [3]: 2290 nM and 1340 nM
koff [3]: 0.375 s⁻¹ and 0.433 s⁻¹
kon [3]: 163000 M⁻¹ s⁻¹ and 323000 M⁻¹ s⁻¹

canine IgG.B Fc variant Q311V (SASA-tagged CH2-CH3) (Fc fusion)
Kd [3]: 372 nM and 439 nM
koff [3]: 0.566 s⁻¹ and 0.696 s⁻¹
kon [3]: 1.52e+06 M⁻¹ s⁻¹ and 1.59e+06 M⁻¹ s⁻¹

canine IgG.B Fc variant T250E (SASA-tagged CH2-CH3) (Fc fusion)
Kd [3]: 2480 nM and 1660 nM
koff [3]: 0.284 s⁻¹ and 0.287 s⁻¹
kon [3]: 114000 M⁻¹ s⁻¹ and 172000 M⁻¹ s⁻¹

canine IgG.B Fc variant M428A (SASA-tagged CH2-CH3) (Fc fusion)
Kd [1]: 723 nM and 1670 nM
WT KD Avg/Variant KD [1]: 0.78 and 0.34
kon [1]: 234000 M⁻¹ s⁻¹ and 318000 M⁻¹ s⁻¹

canine IgG.B Fc variant T256A (SASA-tagged CH2-CH3) (Fc fusion)
Kd [1]: 447 nM and 298 nM
WT KD Avg/Variant KD [1]: 1.27 and 1.9

canine IgG.B Fc variant K315A (SASA-tagged CH2-CH3) (Fc fusion)
Kd [1]: 422 nM and 548 nM
WT KD Avg/Variant KD [1]: 1.34 and 1.03

canine IgG.B Fc variant N434S (SASA-tagged CH2-CH3) (Fc fusion)
Kd [3]: 924 nM and 1050 nM
koff [3]: 0.207 s⁻¹ and 0.209 s⁻¹
kon [3]: 225000 M⁻¹ s⁻¹ and 199000 M⁻¹ s⁻¹

canine IgG.B Fc variant T286A (SASA-tagged CH2-CH3) (Fc fusion)
Kd [1]: 464 nM and 569 nM
WT KD Avg/Variant KD [1]: 1.22 and 0.99
koff [1]: 0.196 s⁻¹ and 0.304 s⁻¹
kon [1]: 422000 M⁻¹ s⁻¹ and 533000 M⁻¹ s⁻¹

canine IgG.B Fc variant L252M (SASA-tagged CH2-CH3) (Fc fusion)
Kd [3]: 869 nM and 774 nM
koff [3]: 0.168 s⁻¹ and 0.169 s⁻¹
kon [3]: 193000 M⁻¹ s⁻¹ and 218000 M⁻¹ s⁻¹

canine IgG.B Fc variant G309A (SASA-tagged CH2-CH3) (Fc fusion)
Kd [1]: 245 nM and 294 nM
WT KD Avg/Variant KD [1]: 2.31 and 1.92

B1: wild-type canine IgG.B Fc (SASA-tagged CH2-CH3) (Fc fusion, part only; not given: serum albumin single-domain tag, part only)
chain, part: APEMLGGPSVFIFPPKPKDTLLIARTPEVTCVVVDLDPEDPEVQISWFVDGKQMQTAKTQPREEQFNGTYRVVSVLPIGHQDWLKGKQFTCKVNNKALPSPIERTISKARGQAHQPSVYVLPPSREELSKNTVSLTCLIKDFFPPDIDVEWQSNGQQEPESKYRTTPPQLDEDGSYFLYSKLSVDKSRWQRGDTFICAVMHEALHNHYTQESLSHSPGK
Kd [4]: 884 nM and 862 nM
koff [4]: 0.21 s⁻¹ and 0.218 s⁻¹
kon [4]: 237000 M⁻¹ s⁻¹ and 253000 M⁻¹ s⁻¹
Kd [5]: 639 nM and 692 nM
koff [5]: 0.17 s⁻¹ and 0.171 s⁻¹
kon [5]: 267000 M⁻¹ s⁻¹ and 247000 M⁻¹ s⁻¹
Kd [6]: 2050 nM and 2990 nM
koff [6]: 0.31 s⁻¹ and 0.315 s⁻¹
kon [6]: 151000 M⁻¹ s⁻¹ and 105000 M⁻¹ s⁻¹
Kd [7]: 566 nM
Kd [8]: 955 nM and 1310 nM
koff [8]: 0.181 s⁻¹ and 0.209 s⁻¹
kon [8]: 190000 M⁻¹ s⁻¹ and 159000 M⁻¹ s⁻¹
Kd [2]: 3150 nM
koff [2]: 0.527 s⁻¹
kon [2]: 168000 M⁻¹ s⁻¹
Kd [9]: 502 nM and 784 nM
koff [9]: 0.169 s⁻¹ and 0.207 s⁻¹
kon [9]: 336000 M⁻¹ s⁻¹ and 264000 M⁻¹ s⁻¹
Kd [10]: 1710 nM and 2660 nM
koff [10]: 0.288 s⁻¹ and 0.326 s⁻¹
kon [10]: 168000 M⁻¹ s⁻¹ and 123000 M⁻¹ s⁻¹
Kd [3]: 8990 nM and 3110 nM
koff [3]: 0.347 s⁻¹ and 0.354 s⁻¹
kon [3]: 38700 M⁻¹ s⁻¹ and 114000 M⁻¹ s⁻¹
Kd [11]: 1560 nM and 754 nM
koff [11]: 0.179 s⁻¹ and 0.182 s⁻¹
kon [11]: 115000 M⁻¹ s⁻¹ and 242000 M⁻¹ s⁻¹
